This is an account of results in publication PMC4666391 (Nucleic Acids Research, 2015).

Experiment [1] has as its target T1, pre-RC (MCM2–7 double-hexamer loaded on pUC19-ARS1 DNA) (S. cerevisiae, UniProt P29469 1-868; P24279 1-971; P30665 1-933; P29496 1-775; P53091 1-1017; P38132 …).
T1 construct: Mcm2, subunit of MCM2–7, S. cerevisiae; Mcm3, subunit of MCM2–7, S. cerevisiae; Mcm4, subunit of MCM2–7, S. cerevisiae; Mcm5, subunit of MCM2–7, S. cerevisiae; Mcm6, subunit of MCM2–7, S. cerevisiae; Mcm7, subunit of MCM2–7, S. cerevisiae; Loaded around double-stranded plasmid DNA; also called pre-replicative complex; source: assembled in solution from purified ORC, Cdc6, Cdt1 and MCM2–7 (40 nM …)
In words: SEC; gel-filtration based pre-RC assay: Sld2 and Sld3 added together to pre-RC, no DDK; 40 nM each for 1 min, titrations (Sld2 60 and 90 nM; Sld3 90 nM) and time course 0.5–30 min, over which binding of both decreased. The conditions noted are these: both partners purified.

The target in experiment [2] is T2, pre-RC (MCM2–7 double-hexamer on DNA) in the presence of DDK (S. cerevisiae, UniProt P29469 1-868; P24279 1-971; P30665 1-933; P29496 1-775; P53091 1-1017; P38132 …, phosphorylated by DDK, sites not printed | phosphorylated by DDK, sites not printed | phosphorylated by DDK, sites not given).
T2 construct: Mcm2, subunit of MCM2–7, S. cerevisiae; Mcm3, subunit of MCM2–7, S. cerevisiae; Mcm4, subunit of MCM2–7, S. cerevisiae; Mcm5, subunit of MCM2–7, S. cerevisiae; Mcm6, subunit of MCM2–7, S. cerevisiae; Mcm7, subunit of MCM2–7, S. cerevisiae; DDK was added together with the factors, so the extent of phosphorylation at early times is not known; also called DDK-phosphorylated pre-RC; source: assembled …
In words: SEC; gel-filtration based pre-RC assay: Sld3 or Sld2 (40 nM) added alone to pre-RC with DDK (5 nM); signal corrected for Mcm2 and compared with the reaction without DDK. The conditions noted are these: both partners purified.

B1: Sld2 (purified) (natural protein, S. cerevisiae, UniProt P34252 1-453, looked up)
chain: MYSFELDKLKIELKTWEHDFIDKNKREPTRDDIKSLRTVRQMYKQYSTLKKKQSLQRQKVDTQESVELPAHKKDHDEVVEIGPTPQVYGKAISIFDMNLSPIKPIYMTFTNNIDVNNDNSKTISNESSPRKTILLKSSPADRTLVAEPISSVKRQLNFQMLNASSTRTPTSSPCKNRNGKLVEIKKCSPTINPPLESGKPSGYYGPNSPLKLDEENIHLNISLNSSTKRRLQIAYPSLQKTPSKDQADISTSFSPSPLIRRPLTKSLIELAREHTEIVKEFGVLQEEDIEEEEEGEEGENGYDEKNHEDDFGLEDELIRPKVVKDIFQEDDDNDDSQAREDTFIRKRPKRRKVIRRLRDNDPETETAGFERDVHKELVKLKRRKVAEFLGSTSQISDTEFEHDPEASSGVVSSEQKPTAKRKGRKKYNLVSNNFRRLKLPKKNRFSNGRWGRR
notes: Sld2, S. cerevisiae; it may or may not be the same preparation as GST-Sld2; also called purified Sld2; source: purified
On to B1, for which the “fold reduction of binding when Sld3 is added, against Sld2 alone” value in experiment [1] was roughly 4 fold. Also, the “fold increase of binding with DDK, against the pre-RC without DDK” value in experiment [2] was roughly 2 fold.
